Results as given in article doi:10.1101/2022.08.30.505852.

Target: βCAT_(666-729), β-catenin residues 666-729 (human) (UniProt P35222)
Assay: ITC

Sequence of βCAT_(666-729), β-catenin residues 666-729 (human) (P35222 666-729): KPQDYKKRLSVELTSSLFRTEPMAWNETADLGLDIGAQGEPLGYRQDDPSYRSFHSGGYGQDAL

Kd: 67 µM
Substance: TAZ1 domain of CBP (residues 346-440) (from UniProt Q92793 346-440) (domain or fragment)
